Assays:
His-TEV LRRC4B [1] = biological target: T1, His-TEV LRRC4B; assay: ELISA; captured by His-TEV LRRC4B, detected by HRP-conjugated C-A5-Ab
T1 sequence (Q9NT99 whole entry, species assumed, looked up): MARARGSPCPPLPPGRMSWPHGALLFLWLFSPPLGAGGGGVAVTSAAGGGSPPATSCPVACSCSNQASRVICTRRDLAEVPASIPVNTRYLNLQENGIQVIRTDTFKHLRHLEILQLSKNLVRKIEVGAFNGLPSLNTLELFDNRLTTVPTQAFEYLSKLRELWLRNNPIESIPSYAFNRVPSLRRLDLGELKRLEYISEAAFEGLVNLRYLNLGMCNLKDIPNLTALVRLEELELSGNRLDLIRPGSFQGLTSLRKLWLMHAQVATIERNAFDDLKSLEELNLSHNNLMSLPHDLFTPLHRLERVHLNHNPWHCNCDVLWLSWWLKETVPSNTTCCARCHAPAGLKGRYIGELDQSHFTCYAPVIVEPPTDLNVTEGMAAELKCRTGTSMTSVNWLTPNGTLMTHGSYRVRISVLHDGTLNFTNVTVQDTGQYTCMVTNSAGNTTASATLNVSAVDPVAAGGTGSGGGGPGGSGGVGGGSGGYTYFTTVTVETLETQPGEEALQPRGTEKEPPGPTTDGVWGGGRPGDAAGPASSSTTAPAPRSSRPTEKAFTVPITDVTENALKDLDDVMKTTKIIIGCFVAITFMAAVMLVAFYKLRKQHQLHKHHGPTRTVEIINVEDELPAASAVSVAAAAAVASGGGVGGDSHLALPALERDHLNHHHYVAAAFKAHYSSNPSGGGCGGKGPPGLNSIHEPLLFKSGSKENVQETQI

His-TEV LRRC4B [2] = biological target: T1, His-TEV LRRC4B; assay: ELISA; competition: LRRC4B-PTPRF complex in the presence of FAM19A5; captured by His-TEV LRRC4B, detected by HRP-conjugated anti-human IgG Fc
His-TEV LRRC4B [3] = biological target: T2, His-TEV LRRC4B; assay: competition ELISA (dissociation of LRRC4B-PTPRF complex); details: chain shown with the change; read at the highest FAM19A5 concentration, about 1e4 nM; signal is PTPRF remaining bound to His-TEV LRRC4B, so a lower OD means more displacement by FAM19A5 …; parent: est. 0.16; read off a plot
T2 chain: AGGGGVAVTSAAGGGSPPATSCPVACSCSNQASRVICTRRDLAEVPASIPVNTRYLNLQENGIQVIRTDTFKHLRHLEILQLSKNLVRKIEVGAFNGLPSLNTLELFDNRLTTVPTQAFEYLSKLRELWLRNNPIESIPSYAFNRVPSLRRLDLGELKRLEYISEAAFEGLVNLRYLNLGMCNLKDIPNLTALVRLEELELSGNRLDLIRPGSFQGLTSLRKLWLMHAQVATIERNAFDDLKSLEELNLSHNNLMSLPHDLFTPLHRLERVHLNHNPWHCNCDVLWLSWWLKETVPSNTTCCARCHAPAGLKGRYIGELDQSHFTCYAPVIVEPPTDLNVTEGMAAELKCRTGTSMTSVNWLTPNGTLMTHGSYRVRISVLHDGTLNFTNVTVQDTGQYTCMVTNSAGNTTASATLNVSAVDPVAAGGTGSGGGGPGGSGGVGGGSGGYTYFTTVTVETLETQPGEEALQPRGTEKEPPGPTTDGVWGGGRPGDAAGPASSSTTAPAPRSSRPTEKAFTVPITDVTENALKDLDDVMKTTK

[4] = biological target: T3, recombinant FAM19A5 (family with sequence similarity 19 member A5) (UniProt Q7Z5A7 44-132); assay: ELISA; competition: FAM19A5 captured by LRRC4B(36–576)-hFc in the presence of inhibitor, detected by HRP-conjugated C-A5-Ab; details: both partners purified
T3 construct: FAM19A5 (TAFA5), secretory protein; also called TAFA5; WT FAM19A5; source: recombinant
T3 sequence (Q7Z5A7 44-132): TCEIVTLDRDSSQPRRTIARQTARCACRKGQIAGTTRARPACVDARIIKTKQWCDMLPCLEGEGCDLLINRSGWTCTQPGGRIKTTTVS

Molecule: MT FAM19A5 (R58A, R59A) (from UniProt Q7Z5A7 44-132) (natural protein)
- EC50 (His-TEV LRRC4B [1]): 0.595 nM

Molecule: recombinant FAM19A5 (family with sequence similarity 19 member A5) (from UniProt Q7Z5A7 44-132) (natural protein)
- EC50 (His-TEV LRRC4B [1]): 0.41 nM
- IC50 (His-TEV LRRC4B [2]): 281 nM

B1: recombinant FAM19A5 (family with sequence similarity 19 member A5), Q7Z5A7 R58A; R59A; R125A; K127A (protein)
chain: TCEIVTLDRDSSQPAATIARQTARCACRKGQIAGTTRARPACVDARIIKTKQWCDMLPCLEGEGCDLLINRSGWTCTQPGGAIATTTVS
- response (His-TEV LRRC4B [3]): 0.52 OD (450 nm)

B2: LRRC4B(453–576)-hFc (Fc fusion, UniProt Q9NT99 453-576, looked up)
chain: VSAVDPVAAGGTGSGGGGPGGSGGVGGGSGGYTYFTTVTVETLETQPGEEALQPRGTEKEPPGPTTDGVWGGGRPGDAAGPASSSTTAPAPRSSRPTEKAFTVPITDVTENALKDLDDVMKTTK
notes: also called WT FB-containing protein; FB protein; source: recombinant
- IC50 [4]: 8.1 nM
